Laboratory results published in patent US20260139049A1 (PEDIATRIC IMMUNITY AND HEALTHCARE GUANGZHOU BIOTECHNOLOGY, published 2026).
Residue numbers refer to the chain shown, from its start. Read-outs that look alike come from different tables or passages of the source. Values belong to the binder of their own block, whether it stands above or below them.

Legend:
human CLDN9 [1] = biological target: T1, human CLDN9 (human, UniProt O95484 1-217); assay: FACS on 293T-CLDN9 cells
T1 construct: whole, on cells; also called HEK293T-CLDN9
T1 sequence (looked up): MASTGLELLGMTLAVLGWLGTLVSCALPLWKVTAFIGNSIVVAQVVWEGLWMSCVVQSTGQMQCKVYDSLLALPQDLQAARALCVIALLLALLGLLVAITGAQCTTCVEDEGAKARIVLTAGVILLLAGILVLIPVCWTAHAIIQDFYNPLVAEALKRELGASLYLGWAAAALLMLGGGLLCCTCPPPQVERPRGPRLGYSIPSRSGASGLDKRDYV

mouse CLDN6 [2] = biological target: T2, mouse CLDN6 (mouse, UniProt Q9Z262 1-219); assay: FACS on CHO-K1-Mouse CLDN6 cells (FIG. 15)
T2 construct: whole, on cells; also called CHO-K1-Mouse CLDN6
T2 sequence (looked up): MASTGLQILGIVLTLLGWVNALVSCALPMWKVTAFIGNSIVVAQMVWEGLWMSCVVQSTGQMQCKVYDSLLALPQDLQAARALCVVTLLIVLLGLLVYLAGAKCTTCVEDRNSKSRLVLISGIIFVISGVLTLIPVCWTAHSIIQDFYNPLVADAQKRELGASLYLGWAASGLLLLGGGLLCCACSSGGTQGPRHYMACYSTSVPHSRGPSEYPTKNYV

human CLDN6 [3] = biological target: T3, human CLDN6 (human, UniProt P56747 1-220); assay: FACS on 293T-CLDN6 cells, 10 µg/mL
T3 construct: whole, on cells; four-transmembrane protein; also called claudin-6; HEK293T-CLDN6
T3 sequence (looked up): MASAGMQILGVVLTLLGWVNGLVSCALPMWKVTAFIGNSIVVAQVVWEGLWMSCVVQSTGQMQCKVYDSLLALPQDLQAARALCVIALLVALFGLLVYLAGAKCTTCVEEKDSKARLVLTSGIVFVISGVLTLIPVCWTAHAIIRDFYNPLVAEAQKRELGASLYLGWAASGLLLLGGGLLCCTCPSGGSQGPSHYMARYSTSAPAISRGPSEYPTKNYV

human CLDN9 [4] = biological target: T1, human CLDN9; assay: FACS on 293T-CLDN9 cells, 10 µg/mL
Procedure: (§1) 50 μL of an antibody to be tested was added to a 96-well plate, then 1× 10⁵ cells were added to each well, and incubation was conducted at 4° C. for 1 h. Cells were washed three times with PBS. […] Finally, cells were washed three times with PBS, and signals were read using FACS. Binding capacities of the antibody to CLDN9, CLDN3, and CLDN4 were analyzed separately based on detection data.

human CLDN6 [5] = biological target: T3, human CLDN6; assay: FACS on HepG2 tumour cells; target on the cells taken as CLDN6
Procedure: (§2) The specific binding of a chimeric antibody to a tumor cell was detected by FACS, and an EC50 value was calculated accordingly to evaluate an inhibitory effect of the chimeric antibody on the tumor cell.
as §1, with “1×10⁵” for “1× 10⁵”, “A binding capacity” for “Binding capacities”, “each tumor cell was” for “CLDN9, CLDN3, and CLDN4 were”, “analyzed” for “analyzed separately”

human CLDN6 [6] = biological target: T3, human CLDN6; assay: FACS on HEK293T-CLDN6 cells
Procedure: (§3) To detect a binding capacity of a chimeric or humanized antibody to CLDN6, a CLDN6-expressing cell line HEK293T-CLDN6 and a CLDN6-negative control cell line HEK293T were washed three times with PBS. 1×10⁵ test cells and 50 μL of an antibody solution to be tested were added to a 96-well plate, and incubated at 4° C. for 1 h. The cells were then washed three times with PBS. […] Finally, cells were washed three times with PBS, and signals were read using FACS.
(§4) An EC50 value (a concentration of an antibody that binds to half of binding sites at equilibrium) is calculated through nonlinear regression.

human CLDN6 [7] = biological target: T3, human CLDN6; assay: FACS on PA-1 tumour cells; target on the cells taken as CLDN6
Procedure: as §2
as §1, with “1×10⁵” for “1× 10⁵”, “A binding capacity” for “Binding capacities”, “each tumor cell was” for “CLDN9, CLDN3, and CLDN4 were”, “analyzed” for “analyzed separately”

mouse CLDN6 [8] = biological target: T2, mouse CLDN6; assay: FACS on CHO-K1-Mouse CLDN6 cells
human CLDN6 [9] = biological target: T3, human CLDN6; assay: FACS on HEK293T-CLDN6 cells; remark: listed apart in the source
Procedure: as §3

[10] = biological target: T4, monkey CLDN6 (Cyno CLDN6) (monkey (Cyno)); assay: FACS on CHO-K1-Cyno CLDN6 cells
T4 construct: whole, on cells; also called CHO-K1-Cyno CLDN6

human CLDN9 [11] = biological target: T1, human CLDN9; assay: FACS on 293T-CLDN9 cells, 10 µg/mL; remark: listed apart in the source
Procedure: as §1

human CLDN6 [12] = biological target: T3, human CLDN6; assay: FACS on 293T-CLDN6 cells, 10 µg/mL; remark: listed apart in the source
human CLDN6 [13] = biological target: T3, human CLDN6; assay: FACS on HEK293T-CLDN6 cells; remark: listed apart in the source
Procedure: as §3, §4

human CLDN6 [14] = biological target: T3, human CLDN6; assay: FACS on HepG2 tumour cells; target on the cells taken as CLDN6; remark: listed apart in the source
Procedure: as §1, with “1×10⁵” for “1× 10⁵”, “A binding capacity” for “Binding capacities”, “each tumor cell was” for “CLDN9, CLDN3, and CLDN4 were”, “analyzed” for “analyzed separately”

human CLDN6 [15] = biological target: T3, human CLDN6; assay: ratio of FACS Geom.Mean on 293T-CLDN6 over 293T-CLDN9, 10 µg/mL
Procedure: as §1

human CLDN4 = biological target: T5, human CLDN4 (human, UniProt O14493 1-209); assay: FACS on 293T-CLDN4 cells, 10 µg/mL
T5 construct: whole, on cells; also called HEK293T-CLDN4
T5 sequence (looked up): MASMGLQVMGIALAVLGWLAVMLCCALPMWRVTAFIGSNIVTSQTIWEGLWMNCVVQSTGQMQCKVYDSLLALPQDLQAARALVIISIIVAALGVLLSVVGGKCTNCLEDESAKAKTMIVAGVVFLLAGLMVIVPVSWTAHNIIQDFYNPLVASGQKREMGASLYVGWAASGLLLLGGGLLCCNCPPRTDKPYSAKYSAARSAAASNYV
Procedure: as §1

human CLDN6 [16] = biological target: T3, human CLDN6; assay: FACS on PA-1 tumour cells; target on the cells taken as CLDN6; remark: listed apart in the source
Procedure: as §1, with “1×10⁵” for “1× 10⁵”, “A binding capacity” for “Binding capacities”, “each tumor cell was” for “CLDN9, CLDN3, and CLDN4 were”, “analyzed” for “analyzed separately”

human CLDN6 [17] = biological target: T3, human CLDN6; assay: cell-based or functional assay
human CLDN6 [18] = biological target: T3, human CLDN6; assay: FACS on HepG2 tumour cells; target on the cells taken as CLDN6; remark: listed apart in the source
Procedure: as §1, with “1×10⁵” for “1× 10⁵”, “A binding capacity” for “Binding capacities”, “each tumor cell was” for “CLDN9, CLDN3, and CLDN4 were”, “analyzed” for “analyzed separately”

human CLDN3 = biological target: T6, human CLDN3 (human, UniProt O15551 1-220); assay: FACS on 293T-CLDN3 cells, 10 µg/mL
T6 construct: whole, on cells; also called HEK293T-CLDN3
T6 sequence (looked up): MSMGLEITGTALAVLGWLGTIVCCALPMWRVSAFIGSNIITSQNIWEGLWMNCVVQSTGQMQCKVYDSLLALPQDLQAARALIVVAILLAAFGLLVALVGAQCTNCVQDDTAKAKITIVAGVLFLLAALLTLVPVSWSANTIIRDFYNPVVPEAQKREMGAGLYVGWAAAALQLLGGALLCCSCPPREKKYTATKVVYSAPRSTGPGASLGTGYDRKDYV
Procedure: as §1

human CLDN9 [19] = biological target: T1, human CLDN9; assay: FACS on 293T-CLDN9 cells, 10 µg/mL; remark: listed apart in the source
Procedure: as §1

human CLDN6 [20] = biological target: T3, human CLDN6; assay: FACS on HEK293T-CLDN6 cells; remark: listed apart in the source
Procedure: as §3, §4

human CLDN6 [21] = biological target: T3, human CLDN6; assay: FACS on 293T-CLDN6 cells, 10 µg/mL; remark: listed apart in the source
human CLDN6 [22] = biological target: T3, human CLDN6; assay: ratio of FACS signals on CLDN6 cells over CLDN9 cells
Procedure: as §1

human CLDN6 [23] = biological target: T3, human CLDN6; assay: cell-based or functional assay; remark: listed apart in the source

Geom.Mean (human CLDN9 [11]): 1170
Geom.Mean (human CLDN6 [12]): 41400
B5: 51C10-M1 (antibody, human IgG1, kappa, V domains shown)
VH: EVQLQQSGPELVKPGASVKMSCKASGYTFTDYNMHWVKKSHGKSLEWIGYVNPNNAATSYNQKFKGKATLTVNKSSSTAYMELRSLTSEDSAVYNCARWDGYVYYYGLDYWGQGTSVTVSS
VL: DIQMTQSSSYLSVSLGGRVTITCKASDHINNWLAWYQQKPGNAPRLLISGATSLETGVPSRFSGSGSGKDYTLSITSLQTEDVATYYCQQYWSTPYTFGGGTKLEIKR
notes: 51C10H4 with G of NG in heavy-chain CDR2 changed to A; also called improved antibody 51C10-M1

EC50 (human CLDN6 [13]): 0.73 µg/mL
Geom.Mean (human CLDN9 [11]): 1740
Geom.Mean (human CLDN6 [12]): 41800
B6: RecA101 (antibody, human IgG1, kappa, V domains shown)
VH: B5 VH with A56G
VL: B5 VL with S93N
notes: heavy chain of 51C10H4 with light chain of 54B5A7; IgG1; also called improved chimeric monoclonal antibody RecA101; recombined chimeric monoclonal antibody RecA101

EC50 (human CLDN6 [14]): 0.552 µg/mL
CLDN6/CLDN9 ratio (human CLDN6 [15]): 265
EC50 (human CLDN6 [5]): 0.449 µg/mL
EC50 (human CLDN6 [6]): 0.352 µg/mL
EC50 (human CLDN6 [7]): 0.64 µg/mL
Geom.Mean (human CLDN4): 104
EC50 (human CLDN6 [16]): 0.415 µg/mL
CDC dose-response fit: EC50 (human CLDN6 [17]): 0.252 µg/mL
CDC dose-response fit: LogEC50 (human CLDN6 [17]): -0.6
EC50 (human CLDN6 [18]): 0.47 µg/mL
Geom.Mean (human CLDN3): 101
Geom.Mean (human CLDN9 [19]): 141
EC50 (human CLDN6 [20]): 0.285 µg/mL
EC50 (mouse CLDN6 [8]): 1.5 µg/mL
Geom.Mean (human CLDN6 [21]): 37500
CLDN6/CLDN9 signal ratio (human CLDN6 [22]): ~200 fold
EC50 [10]: 0.78 µg/mL
ADCC dose-response fit: EC50 (human CLDN6 [23]): 0.0413 µg/mL
ADCC dose-response fit: LogEC50 (human CLDN6 [23]): -1.39
B7: 54B5A7 (antibody, human IgG1, kappa, V domains shown)
VH: B5 VH with V51I, A56G, S59N, L108M
VL: B5 VL with S93N
notes: chimeric IgG1

Further lines, the binder ahead of its results:

B1: 20A3-2A7 (antibody, human IgG1, kappa, V domains shown)
VH: QAYLQQSGAELVRSGASVKMSCKASGYTFTSYNMHWVKQTPGQGLEWIGYIYPGNGGTNYNQKFKGKATLTADTSSSTAYMQISSLTSEDSAVYFCARWKYYDKTTHYALDYWGQGTLVTVSS
VL: DIVLTQSPASLAVSLGQWATISCRASKSVSTSGYSYIHWHQQKPGQPPKLLIYLASNLESGVPARFSGSGSGTDFTLNIHPVEEEDAATYYCHHSRELPFTFGSGTKLEIKR
notes: chimeric: murine variable regions on human IgG1 constant regions
binding result (human CLDN9 [1]): binds
binding result (mouse CLDN6 [2]): binds

B2: 20A3-M1 (antibody, human IgG1, kappa, V domains shown)
VH: B1 VH with G56A
VL: B1 VL
notes: 20A3-2A7 with G of NG in heavy-chain CDR2 changed to A; also called improved antibody 20A3-M1
Geom.Mean (human CLDN6 [3]): 40200
Geom.Mean (human CLDN9 [4]): 243

B3: 20A3-M2 (antibody, human IgG1, kappa, V domains shown)
VH: B1 VH with G56Q
VL: B1 VL
notes: 20A3-2A7 with G of NG in heavy-chain CDR2 changed to Q; also called improved antibody 20A3-M2
Geom.Mean (human CLDN6 [3]): 34000
Geom.Mean (human CLDN9 [4]): 297

B4: 47A5B10 (antibody, human IgG1, kappa, V domains shown)
VH: QGQLQQSGAELARPGASVKLSCKASGYTFTSYGISWVKQRTGQGLEWIGEIYPRSGNTYHNEKFKGKATLTADKSSSTAYMELRSLTSEDSAVYFCARSSYDYYAMDYWGQGTSVTVSS
VL: EIVVTQSPALMAASPGEKVTITCSVSSIISSSKLHWYQQKSETSPKPWIYGTSNLASGVPIRFSGSGSGTSYSLTISSMEAEDAATYYCQQWSSYPLTFGAGTKLELKR
notes: as for B1
EC50 (human CLDN6 [5]): 1.38 µg/mL
EC50 (human CLDN6 [6]): 0.674 µg/mL
EC50 (human CLDN6 [7]): 0.737 µg/mL
EC50 (mouse CLDN6 [8]): 0.633 µg/mL
FACS signal (human CLDN6 [9]): 33000
EC50 [10]: 0.343 µg/mL
